Experimental data from publication PMC3711486.

Biological target: unlabeled actin filaments (chicken skeletal muscle actin) (chicken) (UniProt P68139)
Experiment: other fluorescence titration

“S. pombe Arp2/3 complex labeled with pyrene (pyrenyl-Arp2/3 complex) (from UniProt Q9UUJ1 1-390; O14241 1-317; Q92352 1-168)” was tested, and the KDR with filaments 10% saturated with cofilin was 0.66 µM, the KDR with filaments 20% saturated with cofilin was 0.87 µM and the KDR with filaments 30% saturated with cofilin was 1.5 µM. For the same substance, the KDR with filaments 45% saturated with cofilin was 2.5 µM and the percent of Arp2/3 complex bound, filaments more than 80% saturated with cofilin was 5%.
